From paper PMC9492657, “Metabolic pathway assembly using docking domains from type I cis-AT polyketide synthases” (Nature Communications, 2022)

What was measured:
[1] = target: D3 NDD-His-tag (N-terminal docking domain of DEBS2, 6-deoxyerythronolide B synthase) (UniProt Q03132); assay: BLI; GatorPrime; NDD-His-tag (100 ug/mL in PBS) immobilised on a Ni-NTA biosensor; CDD in solution at variable concentrations in 1x kinetic buffer (PBS pH 7.4, 0.1% BSA, 0.05% Tween 20); 1:1 global model; three repeats
[2] = target: D5 NDD-His-tag, biotinylated (N-terminal docking domain of DEBS3, 6-deoxyerythronolide B synthase) (UniProt Q03133); assay: BLI; Octet RED96E; biotinylated D5 NDD (100 ug/mL in PBS) immobilised on a streptavidin (SA) biosensor; CDD in solution at variable concentrations in 1x kinetic buffer (PBS pH 7.4, 0.1% BSA, 0.05% Tween 20); 1:1 global model; three repeats
[3] = target: T1, R5 NDD-His-tag (N-terminal docking domain of RapB, rapamycin polyketide synthase) (Streptomyces rapamycinicus); assay: BLI; GatorPrime; NDD-His-tag (100 ug/mL in PBS) immobilised on a Ni-NTA biosensor; CDD in solution at variable concentrations in 1x kinetic buffer (PBS pH 7.4, 0.1% BSA, 0.05% Tween 20); 1:1 global model; three repeats; settings: both partners purified
T1 chain: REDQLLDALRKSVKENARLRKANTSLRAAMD

## Flag-tag-D2 CDD (C-terminal docking domain of DEBS1, 6-deoxyerythronolide B synthase) (from UniProt Q03131 1-3491) (domain or fragment)
[1]
  Kd: 14.6 µM

## Flag-tag-D4 CDD (C-terminal docking domain of DEBS2, 6-deoxyerythronolide B synthase) (from UniProt Q03132 1-3567) (domain or fragment)
[2]
  Kd: 280 nM

B1: Flag-tag-R4 CDD (C-terminal docking domain of RapA, rapamycin polyketide synthase) (domain or fragment)
chain: FAPAEPEPRLHEQELRRALAGISIDKFREAGVLDTLLRLAAMEGLAVPKPDSESDDEAFVDEMDADALIKHVLEEER
[3]
  Kd: 340 ± 30 nM
